According to US6767738B1, “Method of isolating adult mammalian CNS-derived progenitor stem cells using density gradient centrifugation” (The Salk Institute for Biological Studies, priority 1999, dated 2004):

B1: NGF: mouse 2.55 NGF, nerve growth factor (protein, UniProt P01139 122-241, looked up)
Beta-nerve growth factor: SSTHPVFHMGEFSVCDSVSVWVGDKTTATDIKGKEVTVLAEVNINNSVFRQYFFETKCRASNPVESGCRGIDSKHWNSYCTTTHTFVKALTTDEKQAAWRFIRIDTACVCVLSRKATRRG
B2: BDNF: brain-derived neurotrophic factor (protein, UniProt P23560 19-247, looked up)
Neurotrophic factor BDNF …: APMKEANIRGQGGLAYPGVRTHGTLESVNGPKAGSRGLTSLADTFEHVIEELLDEDQKVRPNEENNKDADLYTSRVMLSSQVPLEPPLLFLLEEYKNYLDAANMSMRVRRHSDPARRGELSVCDSISEWVTAADKKTAVDMSGGTVTVLEKVPVSKGQLKQYFYETKCNPMGYTKEGCRGIDKRHWNSQCRTTQSYVRALTMDSKKRIGWRFIRIDTSCVCTLTIKRGR

Key:
Format in all cases: cell-based, rat
[1] = system: c-fos mRNA (Trk receptor tyrosine kinase signaling); experiment: RT-PCR analysis of neurotrophin-dependent c-fos induction; details: for induction of c-fos mRNA: proliferating controls treated with neurotrophin
Protocol: (§1) Cell Culture. For proliferating conditions, clonal stem cells (AP14) were cultured in Dulbecco's Modified Eagles Medium/Ham's F12 (DMEM/F12, 1:1) containing N2 supplement (Gibco BRL, Gaithersburg, Md.) and 20 ng/ml rhFGF-2 (provided by A. Baird, Prizm Pharmaceuticals Inc., La Jolla, Calif.). Culture dishes (Becton Dickinsin Labware, Lincoln Park, N.J.) were coated with polyomithine and mouse laminin as previously described by Ray, et al., Proliferation, differentiation and long-term culture of primary hippocampal neurons, Proc Natl Acad Sci USA 90:3602-3606 (1993). For differentiation experiments, cells were plated into polyornithine/laminin coated glass chamber slides (Nunc, Naperville, Ill.) at a density of 2.5—103 per cm2. The cells were incubated for 24 hrs in normal N2 medium containing 20 ng/ml FGF-2, and then the medium was replaced by N2 medium containing 0.5% […] (FBS) and 0.01% DMSO (control solvent) or […] all-trans retinoic acid (Sigma, St. Louis, Mo.). For further differentiation, the medium was replaced by N2 medium containing 0.5% FBS and one of the following: sterile water (control solvent), mouse 2.55 NGF (50 ng/ml, Boehringer Mannheim, Indianapolis, Ind.), rhBDNF (20 ng/ml, Alomone Labs, Jerusalem, Israel), rhNT-3 (40 ng/ml, Genentech, South San Francisco, Calif.). The medium was replaced every two days. For inhibition of the tyrosine kinase activity of the Trk receptors, K-252a (100 nM, Calbiochem, San Diego, Calif.) was added to the medium.
Reverse Transcription-PCR Analysis. Total RNA from stem cells was isolated using RNeasy Total RNA Kits (Qiagen, Chatsworth, Calif.) according to manufacturer's instructions. Fifty nanograms of total RNA was reverse transcribed using avian myeloblastosis virus reverse transcriptase (Promega, Madison, Wis.) with random hexamers ([…]) as primers in a […] reaction mixture. For PCR amplification, two sets of specific oligonucleotide pairs ([…]) were used: one directed to the transcript of interest, and one for a constitutively expressed transcript, either ribosomal protein L27 or L27a. Reactions were performed in a […] reaction mixture containing 10 mM Tris-Cl (pH 8.4), 50 mm KCl, 1.5 mM MgC12, […] each of the four dNTPs, 2 mCi of [a-32P]dCTP and 5 units of Taq polymerase (Promega) using a thermal cycler (Perkin-Elmer, Foster City, Calif.) with a regimen of 1 min at 94° C., 2 min at 60° C. (55° C. for trk receptors) and 2 min at 72° C. for 23 cycles Fifty microliters of each reaction was analyzed by electrophoresis on 8% polyacrylamide gels followed by autoradiography. […] Under these conditions, the L27 amplification product was directly proportional to the amount of input RNA, up to 50 ng total RNA. Oligonucleotide primers used are as follows: […]
RA treatment also results in neurotrophin-dependent induction of c-fos. Transient and rapid induction of immediate early genes such as c-fos is a well-characterized response to extracellular stimuli in neural cells. c-fos is induced after neurotrophin treatment in cultured […] hippocampal or cortical cells and the signaling cascade following c-fos induction is considered to be integral to subsequent steps in differentiation. To determine whether upregulation of mRNAs for trk receptors and p75NGFR observed in the stem cell cultures results in the acquisition of functional Trk-dependent stimulation of c-fos, mRNA was examined by RT-PCR analysis after stimulating RA-treated cells with neurotrophins. […]

ACSC cultures = experiment: Neuronal transmitter phenotype after RA priming and neurotrophin treatment (GABA, TH, calbindin, AChE); details: neurotrophin after 6 days RA
Protocol: as §1
Immunofluorescence. An immunofluorescent staining was performed as previously described (Gage F H, Ray J, Fisher L J (1995a) Isolation, characterization, and use of stem cells from the CNS. Annu Rev Neurosci 18: 159-192. or Gage F H, Coates P W, Palmer T D, Kuhn H G, Fisher L J, Suhonen J O, Peterson D A, Suhr S T, Ray J (1995b) Survival and differentiation of adult neuronal progenitor cells transplanted to the adult brain. Proc Natl Acad Sci USA 92:11879-11883.) Briefly, after fixation with 4% paraformaldehyde in PBS, cells were incubated with primary antibodies overnight at […]. Then the cells were incubated for 1 hr with secondary antibodies (Jackson Immunoresearch) conjugated to fluorescein isothiocyanate, or cyanin-3. Primary antibody concentrations used are as follows (mo=mouse monoclonal, rb=rabbit polyclonal, gp=guinea pig polyclonal): mo a-MAP2abc, 1:5000 (Sigma), mo a-MAP2ab, 1:500 (Sigma), mo a-p75NGFR, 1:10 (192-IgG hybridoma supernatant, a gift from C. E. Chandler, Stanford Univ., Stanford, Calif.), rb a-c-Fos (4),1:4000 (Santa Cruz Biotechnology, Santa Cruz, Calif.), gp a-GFAP, 1:500 (Advanced Immunochemicals, Long Beach, Calif.), rb a-GABA, 1:5000 (Sigma), mo a-TH, 1:500 (Boehringer Mannheim), rb a-calbindin 1:1000 (SWant, Bellinzona, Switzerland). Labeled cells were visualized using confocal scanning laser microscopy (Zeiss Axiovert, Thornwood, N.Y. and Bio-Rad MRC1000, Hemel Hempstead, UK) and color images were generated using Adobe Photoshop (Adobe Systems, Mountain View, Calif.). Both the average percentage and the absolute number +/− SEM of immunofluorescent cells were determined by counting 10 or 50 high power fields (20×) visualized under fluorescence. The total number of cells was counted using nuclear counterstaining with 4′,6diamidino-2-phenylindole (DAPI, Sigma). Statistical analyses were carried out using ANOVA test.
Histochemical Staining for AChE. Cholinergic cells were identified by histochemical staining for AChE by a modification of the staining method of Geneser-Jensen and Blackstadt. Distribution of acetylcholinesterase in the hippocampal region of the guinea pig. I. Entorhinal area parasubiculum, and pre-subiculum, Z Zellforsch 114:460-481(1971). […]

[2] = system: low-buoyancy cortical cells; experiment: Acquisition of neuron competence by low-buoyancy cortical cells in culture; details: 10% serum or 5 ng/ml PDGF instead of FGF-2
Text: Tissue dissection: Three areas were dissected from adult rat brains as follows. Rats (170-190 g Fisher 344 males or females, Harlan) were deeply anesthetized with a mixture of ketamine, xylazine, and acepromazine. Animals were decapitated and whole brains removed. First, ˜1.5 mm of each optic nerve were harvested rostral to, but not including, the optic chiasma. The brain was then bisected longitudinally and each hippocampal lobe separated from the overlaying cortical white matter using the natural separation line along the alveus hippocampus. The white matter of the fimbria and subiculum was removed as much as possible. Some white matter remained. Finally, a 1.5 mm wide cortical ribbon containing parietal and frontal segments was dissected longitudinally, proximal to the central fissure. The pial and callosal surfaces were trimmed from each cortical ribbon to remove a majority of the meninges and white matter.
Tissue dissociation and fractionation: Tissues were finely minced and digested in a solution of papain (2.5 U/ml, Worthington), DNAse (250 U/ml, Worthington), and neutral protease (1 U/ml Dispase, Boehringer) dissolved in Hanks balanced salt solution, as described in Palmer T D, Ray J, Gage F H (1995), FGF-2-Responsive Neuronal Progenitors Reside in Proliferative and Quiescent Regions of the Adult Rodent Brain. Mol Cell Neurosci 6:474-486; and Gage F H, Coates P W, Palmer T D, Kuhn H G, Fisher L J, Suhonen J O, Peterson D A, Suhr S T, Ray J (1995), Survival and differentiation of adult neuronal progenitor cells transplanted to the adult brain. Proc Natl Acad Sci USA 92:11879-11883. Cells and tissue fragments were washed 3 times with Dulbecco's Modified Eagles Medium (DMEM) containing 10% […] bovine serum (defined FBS, Hyclone). Whole digested tissue was then suspended in DMEM 10% FBS, filtered through a sterile 107 μm nylon mesh and thoroughly mixed with an equal volume of PERCOLL™ (polyvinylpyrrolidone-coated silica colloids) solution. The PERCOLL™ (polyvinylpyrrolidone-coated silica colloids) solution was made by mixing 9 parts of PERCOLL™ (polyvinylpyrrolidone-coated silica colloids) (Pharmacia) with 1 part 10X phosphate buffered saline (PBS, Irvine Scientific). The cell suspension was then fractionated by centrifugation for 30 minute, 18°C., at 20,000×g. […]
To determine how rapidly cortical cells acquired the competence to differentiate into neurons in culture, cells were isolated and cultured in growth medium for various times, allowed to differentiate in differentiation medium and then evaluated for the presence of neurons. […] Cultures were also treated with BrdU for the first 10 days and the newly generated neurons were evaluated for evidence of cell division. All neurons scored were labeled (>99%).

Row | Molecule | induction of c-fos mRNA [1] | number of AChE-positive cells (ACSC cultures) | number of TH-positive cells (ACSC cultures) | number of calbindin-positive cells (ACSC cultures) | number of neurons expressing GABA (ACSC cultures) | neuron formation in control cultures [2] | c-fos induction by each neurotrophin (NGF, BDNF, NT-3) ([1]; pretreatment with K-252a (100 nM))
1 | NT-3: Neurotrophin-3 | slightly increased | small increases over control cultures | increased | increased | increased |  | 
2 | PDGF |  |  |  |  |  | no neurons were formed | 
3 | COC(=O)[C@@]1(O)C[C@H]2O[C@]1(C)n1c3ccccc3c3c4c(c5c6ccccc6n2c5c31)C(=O)NC4 [K-252a, reference compound] |  |  |  |  |  |  | blocked
4 | B1 | minimal | small increases over control cultures | not |  |  |  | 
5 | B2 | minimal | most effective agent | increased | increased | increased |  | 
